Reference: patent publication US20070111947A1, “Fibrin targeted therapeutics” (priority 2005, published 2007)

Test system: arterial thrombosis (FeCl3 damaged carotid artery)
Experiment: Arterial thrombosis model (FeCl3 damaged carotid artery)
Format: in vivo, rabbit
Experimental: Rabbits are initially sedated with a subcutaneous injection of Xylazine (5 mg/kg). Approximately 5 min following sedation, the animals are anesthetized with a dose of Ketamine (50 mg/kg) and Acepromazine (2.5 mg/kg) intramuscularly to achieve the appropriate level of anesthesia. Anesthetic depth will be assessed using the pain withdraw reflexes and EKG. Anesthesia is given intravenously every 45-60 min at 5-10 mg/kg to maintain proper anesthetic depth.
Left carotid artery is isolated using a ventral midline approach. A stenosis is initiated on the carotid artery reducing blood flow by 70-80%. 1 cm segments of carotid artery are placed in a plastic tube opened lengthwise, together with a filter paper (diameter 3 mm) soaked in ferric chloride (FeCl3, 40 μL, 40% w/w). After 15-30 min exposure of the artery to FeCl3, the plastic tube with the filter paper is removed and the artery is rinsed with saline. The time to vessel occlusion is monitored using a Doppler flow probe, which is attached to the carotid artery. ^125I fibrinogen (30 μCi/kg) is administered 5 min before initiation of the stenosis. The saline, test or control compounds are given via the jugular vein as an intravenous bolus injection immediately before or at the end of FeCl3 exposure. Blood sample are collected at 1, 3, 5, 12, 20, 30, 45, 60 and 90 min after compound injection via the contra lateral jugular vein. The time that blood flow dropped to zero is recorded as the occlusion time of blood vessel. At the end of experiment, animals are sacrificed with an overdose of pentobarbital (120 mg/kg). Both the clot from the FeCl3 damaged artery, and the damaged artery after clot removal are weighed. Right carotid artery is used as a control. Concentration of test compound and fibrin in the clot are detected by γ-countering.
Pharmacokinetics of compound are analyzed by using the WinNonLin program.

[1] = compared to an equivalent dose of Non-binder control, FIG. 4

CCC(C)[C@H](CC(=O)[C@@H](C)Cc1c[nH]cn1)C(=O)N[C@@H](CC(C)C)C(=O)NCc1ccc(CCC(=O)[C@H](CCNC(=O)CC[C@H]2C(=O)[O][Y]345[O]C(=O)CN(CCN2CCN(CC(=O)[O]3)CC(=O)[O]4)CC(=O)[O]5)NC(=O)CC[C@H]2C(=O)[O][Y]345[O]C(=O)CN(CCN2CCN(CC(=O)[O]3)CC(=O)[O]4)CC(=O)[O]5)cc1 (stereo partly shown) [Hybrid Molecule 3]
higher level bound to clot [1]: 5 fold | higher level bound to clot plus damaged artery [1]: 2 fold | increased time to occlusion (compared to an equivalent dose of melagatran alone or the Non-binder, FIG. 2): approximately 4 fold | decrease in clot weight (compared to an equivalent dose of melagatran or Non-binder control, FIG. 3): approximately 2 fold
